For 2 molecules, titer results are on record in patent EP4265717A1.

Experiment [1] has as its target mobilized colistin resistance (MCR)-2 protein. Briefly: indirect ELISA, plate coated with 0.2 ug/mL MCR-2 protein, purified antibody in doubling dilutions. The following applies: scale: reciprocal dilution.
The target in experiment [2] is mobilized colistin resistance (MCR)-1 protein. Briefly: indirect ELISA, plate coated with 0.2 ug/mL MCR-1 protein, purified antibody in doubling dilutions. The following applies: scale: reciprocal dilution.

B1: anti-MCR-1/MCR-2 protein mouse mAb 2DG5 (antibody, V domains shown)
VH: VKLQESGPGLVKPSQSLSLTCTVTGYSITSDYAWNWIRQFPGNKLEWMGQISDSAVTTYNPSLKSRISINRDTSKNQFFLQLNSVTPEDTATYYCARRNFYGYNFFDYWGRGTSLTVSS
VL: DIQMTQTTSSLSASLGDRVTINCRASQDINNYLNWYQQKPDGTVKLLIYYTSRLHSGVPSRFSGSGSRTDYSLTISNLEREDIATYFCQQGKTIHPWTFGGGTKLDIKR
For the molecule B1, the titer in experiment [1] and in experiment [2] was > 1.28e+06 throughout.

B2: anti-MCR-1/MCR-2 protein mouse mAb 1IB10 (antibody, V domains shown)
VH: VKLQQSGPELVKPGASVKMSCRASGYTFTSYVMHWVKQKPGQGLEWIGYFNPYNDGANYNEKFKGKATLSSDKSSGTAYMDLSSLTSEDSAVYYCARGPYGNYAMDYWGQGTSVTVSS
VL: DVLMTQTPLSLPVSLGDQASISCRSSQNIVCSYGNPCLEWYLQKPGQSPKLLIYKVSNRFSGVPDRFSGSGSGTDFTLKISRVEAEDLGVYYCFQSSHVPWTFGGGTELEIKR
On to B2, for which the titer in experiment [1] and in experiment [2] was > 1.28e+06 in each case.
